Key:
Assay in all cases: MST
[1] = biological target: MBP-Mpp83Aa1 (native) (Bacillus thuringiensis)
[2] = biological target: MBP-Mpp83Aa1 modified with ABP5 at AA70-76 (Bacillus thuringiensis)
[3] = biological target: MBP-Mpp83Aa1 modified with ABP5 at AA224-230 (Bacillus thuringiensis)
[4] = biological target: MBP-Mpp83Aa1 modified with ABP5 at AA172-178 (Bacillus thuringiensis)

With “Recombinant N. viridula aminopeptidase N (enzyme)” as the substance, how does the Kd [1] read?
The Kd was 139 nM.

And the Kd [2]?
Its Kd is 123 nM.

What about the Kd [3] of the same substance?
The Kd was 187 nM.

What about the Kd [4] of the same substance?
The Kd was 4.98 nM.

Reference: publication PMC9249324
